For one substance, inhibition in MMP-2 protease activity compared to untransfected NIKS (EnzChek Gelatinase/Collagenase Assay, DQ gelatin) results are on record in patent US20060257383A1.

The assay concerns the target active MMP-2 (Calbiochem) (UniProt P08253). As to the kind of experiment: cell-based or functional assay.
UniProt P08253, sequence (P08253 110-660 limits assumed): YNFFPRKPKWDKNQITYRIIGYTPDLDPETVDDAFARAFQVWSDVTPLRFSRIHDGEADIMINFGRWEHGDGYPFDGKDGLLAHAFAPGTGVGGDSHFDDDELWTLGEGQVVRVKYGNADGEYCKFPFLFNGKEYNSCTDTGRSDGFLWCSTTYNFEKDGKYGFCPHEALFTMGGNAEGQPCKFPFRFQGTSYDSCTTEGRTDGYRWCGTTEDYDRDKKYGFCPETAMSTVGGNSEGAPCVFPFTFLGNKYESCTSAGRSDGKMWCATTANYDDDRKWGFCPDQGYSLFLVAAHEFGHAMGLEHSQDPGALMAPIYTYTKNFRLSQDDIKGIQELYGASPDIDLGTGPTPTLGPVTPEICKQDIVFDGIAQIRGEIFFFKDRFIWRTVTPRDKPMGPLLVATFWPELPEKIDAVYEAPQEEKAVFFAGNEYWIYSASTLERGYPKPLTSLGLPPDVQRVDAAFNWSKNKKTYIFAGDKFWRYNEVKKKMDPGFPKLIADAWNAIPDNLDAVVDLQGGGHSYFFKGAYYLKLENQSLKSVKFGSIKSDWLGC

For “TIMP-1-HA (exogenous human TIMP-1 with a C-terminal HA epitope tag, secreted by stable NIKS clone INV TIMP-1-HA:28) (from UniProt P01033 24-207)”, the inhibition in MMP-2 protease activity compared to untransfected NIKS (EnzChek Gelatinase/Collagenase Assay, DQ gelatin) is less than 40%.
